Laboratory results reported in the DeepSol protein solubility set.

experiment: soluble on expression in E. coli; label from the status in PepcDB or PDB records

Sequence	soluble on expression in E. coli
GPGSMNRLFGRKKDTQKPTLEDASVKIGARCDAVDARVSKIDAELAKLKECIQRTTGATQQRHKQRAIQLLQQKRLYQNQQDVLMQQQFNIDQLQFTTESVKDAKLQVDAMKDATKTLKREFKKMSVADVEKLQDELLNLYEDAQYVQEAMGRSYDVPDSIDEDEMLGELEALAMQSGNEADSSYLSDALAMPSGRLPDLMSNTQQQQETETPDPYKLETQLGL	not soluble
PFSWRHYIVLSRQDLEEYGEEIIAHEYAHIMHKHFRDLLLAEICLLFQWFNPAMWLFRKELKTVHEFEADESVLKAGIDAKKYQLLLI	not soluble
MTDAALPPLIQQMLQPEFYPHVVEAPVQLYQTHCSYVLLTGPYAYKLKKPVYFGFLDYSTLEKRQHFLQEELRLNQRTAAPLYQQVLAISQAGDRYQFAETEPAAEYVLQMKQFPKGCLFSEQFESGQLDASVMRQLAAVVAEFHTKTWVDDHVRSYGQVAQIRKAFDENYQQTLHYIGGPQTQAQFDTTKAFSDRFFDTKADLFAARLAADKIRECHGDLHLGNLCRWDNQLFLFDCIEFNEPFRFVDTMYDIAFLVMDLDARGRQDLGTAFLNAYAEMSGDWEGLQVLPLYLSRQAYVRAKVTSFLLDDPAIDSDRRQQAFDQAAAYYQLAHAYAQPAQQGELLLLSGLSGSGKSTLGRTIAERQRAIILRSDAVRKHLAGISLLERGGPEIYSPEMSDRTYGRLLYLGLGLAQAGYRVILDAKYDRQAYRGAALTAAQAQQIPIQILHCQASEETLRQRLQARQGDIADATADLLAQQLTAWQDFSEDEQGFVRAIATEKPLTQQLDALGFLEHHHHHH	not soluble
MQITEALISEPGEIRRFVQQAVDHWPNLLAFHFTLYSAEGIYGQQIQTFCSSFHRRVHERITEHNHTVSPSAPVVLRWLREQHEGAQIRCLLLLSQTSICHPRVGVMADEECAQLVDLLQQTWSVISAGGQCRVERCFRVARPGSSGQYVALKTAVQSFMSQVIATIIR	not soluble
MGSDKIHHHHHHMQLTSENYYSQEANKEYMSVSGYKDFAGTYGKMPCEFYGMEKLNGRWEDEKSTALLVGSYVDSYFEGSLDQFKKDNPEIFTQKGELKANFKQAEEIIARIERDEYFMKYMSGQKQVIMTGELFGAKWKIKMDSYIPGVAIVDLKVMASITDLKWVKDIGYLDFVRYWGYDIQGAVYQEIVRQNTGEKLPFFIAGATKQTEPDIRIIHVTDNYLQEALHMVEMNMPRILRVKNGEVEPDRCELCDCCRHNRVLKKPISIMDLTAGI	not soluble
MAHHHHHHMQEVMQKALAGRYDPLPPTISPEMTEVVTSLLCGDPHARPSSSKLLNMPICKLFVSGLLEIVQTQPSFAGPLRDTISTHIQSVKQSLKEERRVTVRQMEESQSAAAASTTILEGATPMGSVGDLTLYEGIVKKQSGDLAWKRRYLCIRGALEEGERLDVGRMPKFKSLDLVLAVSKETMRQQCITTPFSELEDVFPVASKYTGSNAQHVFAVAFKTGRRLLFQARGDPERDAWMQKIQQTLGIDEAD	not soluble
MTAVVNIAAYKFVSIANPADLREPMLEQAGQRQLKGTVLLAPEGINLFLAGAADAIEGFLRWLRADARFADLQAKYSESARMPFRKLLVKVKREIIRMDHPAIRPEAGRAPAVDAATLRRWLAQGRDDQGRELVMLDTRNAFEVEVGTFRGALDWRIERFTQFPQAVRDNQAALAGKTVVSFCTGGIRCEKAAIYMAEAGIEHVYQLEGGILKYFEETDGAGFDGACFVFDERVALDAALAPQALEHHHHHH	soluble
MTSALATGLATITADGTVLDAWFPAPELTAVDTTGTTVLDGDDIPEHLRLLVGEDADRGVRRQAITTTIADLDAAPIDAYDAYLRLHLLSHRLVKPHGQNLDGIFGLLTNVVWTNHGPCEVKNFDITRAKLQARGPVTVYLVDKFPRMVDYVLPSGVRIGDADRVRLGAHLAEGTTVMHEGFVNFNAGTLGNSMVEGRISAGVVVDDGSDVGGGASIMGTLSGGGKQVISLGKRCLLGANSGCGIPLGDDCVIEAGLYVTAGSKIIVRGAVAEATGLNDGDTTKALELAGANNILFRRNSISGAIEATAWKSQAVELNDALHAN	soluble
MSLKVVITRPKERADVFASLLKKEGFEPIIFPTLEIVYNKDLDVNLDSYDWIAFTSPSGVIGLYNILTENERENVKNKKIAVIGEKTAKTFKKYFGRDPDIMPNEYTAESLLREIKKVSKEEEKFLIPTTPSTRDVLKNNLNADLLFVYKSAEPENLKEDIKKLKELIAKDKFILTFTSGLTAKNFFKYVDDEFAEIIKDNYIVAIGPITAKVIEKFGFKPLIPKVYTIEGMLEVIRTLKEREGHHHHHH	soluble
MSLNLQSKKRAWIVGKEHYDLGNDLFSRMLDPYMQYSCAYWKDADTLEAAQQAKLKLICEKLQLQPGMRVLDIGCGWGGLSQYMATHYGVSVVGVTISAEQQKMAQTRCEGLDVSILLEDYRDLNDQFDRIVSVGMFEHVGPKNYNTYFEVVDRNLKPDGLFLLHTIGSKKTDHNVDPWINKYIFPNGCLPSVRQIAEASESHFVMEDWHNFGADYDTTLMAWHERFINAWPEIAGNYNERFKRMFSYYLNACAGAFRARDIQLWQVVFTRGVENGLRVPREGHHHHHH	not soluble
MIRAVHSAAIVLLVFSYMAEFSGAASGGYAPASVGTQPVGTSFRDRLADGSPGPVMVVIPPGRFRMGAIFGGGDPDEKPVHEVSIPRAFAIGAYEVTFAEYDRFCEATGREKPKDGRRWFGPLSRNWGRGNKPAMNVSWDDAVAYVKWLSDQTGHRYRLPSEAEWEYAARGGKDTPYWWGGTVGQNKANCKGCGSRWDKKITAPVGSFAPNPYGMFDTAGNVWEWCVDTWHESYDGAPADGSPWIGGEDSRRVQRGGSFGSKPRYIRSSARGRGAQDGRYVYLGFRVVRELLEHHHHHH	not soluble
MIAATPQAMDKQPSAKNQPCGIDKEVGTIANTVITLMPKYIDTNVIVLRHSCANRPPWRNAATNHANNPRNPSKNSTDITTPIDAAISGTACPFIRFSNSAIN	not soluble
GVTYLLAKRKILYFEAVESKIFVYTEKDVYETTWKLYELEEKFKDSSFFRCSKSMILNIEWIEKIAPGFHGKFEASLFNREKVIISRQYAKILKQKLNLGGKGK	not soluble
MALIEKNTQFDADKLTANVVGIAADVGKHDSGMHQHHKGQLLYAPQGCMTFALNDSICILPPTKAVWIPPHTPHRAVMTNVVAYRSVYFDCDKFSCPKSIVMIEVNDLLKALINKMALWEWDIEQTKTNATTILFWEEFYQAKQFELTLPLPSDRRLASFRNAMTKDGFIAPD	not soluble
MAQQHNDWADITSLDTFPKVLQHNAKHWPEQVAMREKEFGIWREFTWQDYENRVKWMALALQDLGIGEQDVVGLLGDNRPEWVWGELAAHAIKGYSLGIYQDSMHEEVAYLINYAKAKVVIAEDEEQCDKLLELGDEIPSVEYIIYCDPRGMRKYDDPRLIDVEQVYKKGQLIDKADPDKYLNMVAATKGSDLSILCTTSGTTSKPKLAQLHSGTFLDHCAAYLRADPRSPGDNYVSVLPLPWIMEQVYVVGQALISRQIVNFVEEQETMMSDLREIGPNFVLLAPRVWENIVADVSARMMDSTPFKQKMYKLGMSLANKALDQGKRSKLAEWILLRA	not soluble
MSLETILLNINISADKTSPKTLRKQLNKVLTSLDVNIQTSRKVELVTSEIVTNIVTHNNDNHTNITLKFGKCKNGYWLDIYDNGAEFDPLSGDIPELNDEFLLFESSRGLYLIRSQCDFIEYEYLNKIKNNRIHCVWYDENINAGPTILIIDDSEIELAIVSNLLSDQFSVLQASNGLDAISILDSHSIDIIISDLHMPTINGVDLYVYLQKHLDKIIPFIFLTSDTNEMTGLREDAYRIGADDVLTKPISQQMLVNAIERALKRNNEGHHHHHH	soluble
MAKRQQRSNKPSSEYTCLGHLVNLIPGKEQKVEITNRNVTTIGRSRSCDVILSEPDISTFHAEFHLLQMDVDNFQRNLINVIDKSRNGTFINGNRLVKKDYILKNGDRIVFGKSCSFLFKYASSSSTDIENDDEKVSSESRSYRSHHHHHH	soluble
MGSDKIHHHHHHMLERRHIARDISYSHSAETRPGRIMIRLMENTTGRLRLIKRAKGYDMEVASGRSFWDVIVERYGLSLDVVGGSLDAIPRDKPVILIANHPYGILDGLMMGHILSRTRCDFRMLAHQVFRKAEDLNKVILPIDFAETKEAMKVNLQTRKDALDYLGQGGAIGIFPGGTVSTASKPFAHPMDPGWRGFTARMVAKSDAVVVPLYFDGHTSRLFQIASHLHYTLRMGLLIKEFKKRVDTPVKVVIGEPIGRDVLDPLAKDSKAMMDFLRKATYELSPTPLKSYDYGFEFEEKHRA	not soluble
TTPTVNATPKIHKRDYQKDVVYLYQFPRIDTVPNLSSFCLKTETFLRAFKIPHEVIETGSLRSRNGTLPFVELNGEHIPDSDLIEVRLRKHFQIPNLSAEDESHATALCRLADNHLLSIIIKYKAAEDAWYSALLRGVPGPNCLKTILKPIVRKLFMKKVHERTGGAIGNFTEDEAEMLCHKDLQAIQDSIKGKYLFGDKITSADCTVFGEVASAYYPFPNKFSRIIDSHYPKLHEYCDRIIEELY	not soluble
MNRQLLLDVLPAPAPALNNYIAGPNGQALAAAHALTAGRAIYLWGPAGCGRTHLLRGLSARPEAIYIDAARAAQSLRELAEADSTAPMPRLVAVDDVHRMDDARQAGLFALYNRWRESAATGRAFALAVSGDRAPMSLPLREDLRTRLGWDLVFRLDPLSDADKLAALTAQAAERGLQLAPEVINWMLTHHERDIRKLAALLDALDRYSLATGRPITIPLLRAMLADPHSQATLEHHHHHH	soluble
MAVAGFSPIKLIWKNSRHDLVLAGQAGLSYKNNNYLYMDVDNKHAMARTYANGKFSLGARMAYEYRISNTLGAGATATYEFGGEVFAALATFNVHF	not soluble
GAADHVKGDGKLTSKKISVADYNEIKVDGVIDFNYEQSDDPSTVEVTVDQNLHPYVNIEVKDRVLTIAFKGAKVDHFTKFIVKTNSKWLAAAKVSGNANFMVNSPLTGDETVIKANANSLVQLKETVTVGKLDLNVSGSANMVVNHLEADKIECDIDGSGSITIKKGNAKEGDYSIVSSGDIHAFGLAVPQLSCKVTGNGLAEVHATDNLKANVVGKGNIRYKGPTAVQQRIIGKGTVEEVKE	soluble
MLNTHSCIFHRGVNGSEPLLPVVNGVNICGNPRIISCCLLPLVNPCKPMSTGFDFVAIKKSRTFTAIEIRHKNMRKMAEQQIRCAKC	not soluble
MIAEQHQAVVDSGASKKGAKVGFVSLGCPKNLVDSERILTQLRTEGYDVTNSYDDAELVIVNTCGFIDSAVQESLDTIGEALAANGKVLVTGCLGVKKDEIIELHPNVLGVTGPHAYDEVLAQVHEHVAKPEHNPFIDLVPPQGVKLTPKHYAYLKISEGCNHRCTFCIIPSMRGDLDSRPVGDVLGEAKRLVDSGVKELLVISQDTSAYGVDVKHKTDFWDGMPVKTHMQQLCEELAKQGVWIRLHYVYPYPHVDKIIPLMAEGKILPYLDIPFQHANKRILKLMKRPGSSDRVLERIAKWREICPELVIRSTFIVGFPGETEEEFEELLNFLEEAQLDRVGCFKYSPVEGATANALPDHVSDEVMEDRLQRFMAVQAKISSDKLQVRIGQEYLILVDEVNGLGIVGRSYMDAPEVDGKVYLSDDYDAKPGDQIWVQIIHADEHDVWGVRVED	soluble
